Measurements as given in IntAct's records for PubMed 12097473.

B1: Kinesin-like protein KIF1B (Homo sapiens), O60333-3 (parent)
chain: MSGASVKVAVRVRPFNSRETSKESKCIIQMQGNSTSIINPKNPKEAPKSFSFDYSYWSHTSPEDPCFASQNRVYNDIGKEMLLHAFEGYNVCIFAYGQTGAGKSYTMMGKQEESQAGIIPQLCEELFEKINDNCNEEMSYSVEVSYMEIYCERVRDLLNPKNKGNLRVREHPLLGPYVEDLSKLAVTSYTDIADLMDAGNKARTVAATNMNETSSRSHAVFTIVFTQKKHDNETNLSTEKVSKISLVDLAGSERADSTGAKGTRLKEGANINKSLTTLGKVISALAEVSKKKKKTDFIPYRDSVLTWLLRENLGGNSRTAMVAALSPADINYDETLSTLRYADRAKQIKCNAVINEDPNAKLVRELKEEVTRLKDLLRAQGLGDIIDTSMGSLTSSPSSCSLSSQVGLTSVTSIQERIMSTPGGEEAIERLKESEKIIAELNETWEEKLRKTEAIRMEREALLAEMGVAIREDGGTLGVFSPKKTPHLVNLNEDPLMSECLLYYIKDGITRVGQADAERRQDIVLSGAHIKEEHCIFRSERSNSGEVIVTLEPCERSETYVNGKRVSQPVQLRSGNRIIMGKNHVFRFNHPEQARAEREKTPSAETPSEPVDWTFAQRELLEKQGIDMKQEMEKRLQEMEILYKKEKEEADLLLEQQRLDADSDSGDDSDKRSCEESWKLITSLREKLPPSKLQTIVKKCGLPSSGKKREPIKMYQIPQRRRLSKDSKWVTISDLKIQAVKEICYEVALNDFRHSRQEIEALAIVKMKELCAMYGKKDPNERDSWRAVARDVWDTVGVGDEKIEDVMATGKGSTDVDDLKVHIDKLEDILQEVKKQNNMKDEEIKVLRNKMLKMEKVLPLIGSQEQKSPGSHKAKEPVGAGVSSTSENNVSKGDNGELAKEERVSQLMNGDPAFRRGRLRWMRQEQIRFKNLQQQEITKQLRRQNVPHRFIPPENRKPRFPFKSNPKHRNSWSPGTHIIITEDEVIELRIPKDDEARKGNKEESQEKGGKGAFKDPQFPWGSQGMRSQDHIQVSKQHINNQQQPPQLRWRSNSLNNGQPKSTRCQASASAESLNSHSGHPTADVQTFQAKRHIHQHRQSYCNYNTGGQLEGNAATSYQKQTDKPSHCSQFVTPPRMRRQFSAPNLKAGRETTV

Variants of: B1
Conditions: with dlg1_rat Dlg1, Q62696

Row | Variant | effect of a mutation on the interaction
1 | V1153A | decreasing interaction

Variants of: B1
Conditions: with magi2_rat Magi2, O88382
magi2_rat Magi2, O88382, sequence (O88382 whole entry): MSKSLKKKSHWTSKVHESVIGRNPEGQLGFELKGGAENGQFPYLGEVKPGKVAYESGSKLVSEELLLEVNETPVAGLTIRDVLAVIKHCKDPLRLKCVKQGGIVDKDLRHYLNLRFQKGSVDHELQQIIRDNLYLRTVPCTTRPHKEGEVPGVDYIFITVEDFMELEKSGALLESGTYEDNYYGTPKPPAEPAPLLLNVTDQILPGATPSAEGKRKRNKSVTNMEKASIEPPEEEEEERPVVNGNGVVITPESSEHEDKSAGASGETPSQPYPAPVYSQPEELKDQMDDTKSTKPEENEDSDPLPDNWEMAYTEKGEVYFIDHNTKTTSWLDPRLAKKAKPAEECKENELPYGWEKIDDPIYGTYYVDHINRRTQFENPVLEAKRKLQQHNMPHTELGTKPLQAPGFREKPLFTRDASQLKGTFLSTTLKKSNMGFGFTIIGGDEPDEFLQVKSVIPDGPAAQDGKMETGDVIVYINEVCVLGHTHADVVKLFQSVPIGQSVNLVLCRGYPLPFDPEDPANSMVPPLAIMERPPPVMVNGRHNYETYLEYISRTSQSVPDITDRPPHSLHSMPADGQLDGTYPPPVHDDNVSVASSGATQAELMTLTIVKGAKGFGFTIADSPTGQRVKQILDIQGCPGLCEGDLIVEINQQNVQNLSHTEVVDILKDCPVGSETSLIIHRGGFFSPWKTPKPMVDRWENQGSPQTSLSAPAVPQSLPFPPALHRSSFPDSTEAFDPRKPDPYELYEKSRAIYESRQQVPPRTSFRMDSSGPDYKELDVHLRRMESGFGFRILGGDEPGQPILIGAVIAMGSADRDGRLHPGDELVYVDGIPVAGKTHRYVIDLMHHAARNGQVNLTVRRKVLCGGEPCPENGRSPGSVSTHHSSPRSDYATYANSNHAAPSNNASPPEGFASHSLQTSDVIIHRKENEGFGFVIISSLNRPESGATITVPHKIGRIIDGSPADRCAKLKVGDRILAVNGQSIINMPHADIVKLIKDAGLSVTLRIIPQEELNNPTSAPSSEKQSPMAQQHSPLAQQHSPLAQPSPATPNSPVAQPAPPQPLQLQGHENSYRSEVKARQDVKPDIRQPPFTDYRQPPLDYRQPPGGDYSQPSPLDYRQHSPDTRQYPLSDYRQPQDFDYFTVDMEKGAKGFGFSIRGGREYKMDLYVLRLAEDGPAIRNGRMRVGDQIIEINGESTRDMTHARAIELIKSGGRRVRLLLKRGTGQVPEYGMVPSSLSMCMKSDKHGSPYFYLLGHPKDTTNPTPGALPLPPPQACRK

Row | Variant | effect of a mutation on the interaction
2 | V1153A | disrupting interaction

Variants of: B1
Conditions: with dlg1_human DLG1, Q12959
dlg1_human DLG1, Q12959, sequence (Q12959 whole entry, looked up): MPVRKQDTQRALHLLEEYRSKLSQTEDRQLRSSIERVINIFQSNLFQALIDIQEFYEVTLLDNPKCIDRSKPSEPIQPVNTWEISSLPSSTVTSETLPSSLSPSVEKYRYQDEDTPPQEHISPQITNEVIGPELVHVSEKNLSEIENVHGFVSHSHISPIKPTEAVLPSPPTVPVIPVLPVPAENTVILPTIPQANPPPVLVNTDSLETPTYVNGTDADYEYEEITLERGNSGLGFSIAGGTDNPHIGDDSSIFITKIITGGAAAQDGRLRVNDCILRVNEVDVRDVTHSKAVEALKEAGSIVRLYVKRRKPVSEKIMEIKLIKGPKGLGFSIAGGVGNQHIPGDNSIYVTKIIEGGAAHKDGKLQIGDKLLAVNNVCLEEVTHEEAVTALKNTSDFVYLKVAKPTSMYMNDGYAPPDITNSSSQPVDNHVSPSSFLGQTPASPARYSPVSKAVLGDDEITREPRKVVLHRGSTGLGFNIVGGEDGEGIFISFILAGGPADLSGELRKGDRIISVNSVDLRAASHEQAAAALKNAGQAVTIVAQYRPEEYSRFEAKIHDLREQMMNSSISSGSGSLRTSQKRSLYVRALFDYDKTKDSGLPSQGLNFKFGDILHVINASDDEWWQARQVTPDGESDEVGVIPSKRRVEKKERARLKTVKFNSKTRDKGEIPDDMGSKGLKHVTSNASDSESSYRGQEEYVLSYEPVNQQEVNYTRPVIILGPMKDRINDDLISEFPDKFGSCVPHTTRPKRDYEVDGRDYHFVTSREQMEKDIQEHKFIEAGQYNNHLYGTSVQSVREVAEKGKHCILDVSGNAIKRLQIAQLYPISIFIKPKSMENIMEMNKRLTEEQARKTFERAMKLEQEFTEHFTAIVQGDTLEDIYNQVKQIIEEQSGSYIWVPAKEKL

Row | Variant | effect of a mutation on the interaction
3 | V1153A | decreasing interaction

Variants of: B1
Conditions: with dlg2_rat Dlg2, Q63622
dlg2_rat Dlg2, Q63622, sequence (Q63622 whole entry, looked up): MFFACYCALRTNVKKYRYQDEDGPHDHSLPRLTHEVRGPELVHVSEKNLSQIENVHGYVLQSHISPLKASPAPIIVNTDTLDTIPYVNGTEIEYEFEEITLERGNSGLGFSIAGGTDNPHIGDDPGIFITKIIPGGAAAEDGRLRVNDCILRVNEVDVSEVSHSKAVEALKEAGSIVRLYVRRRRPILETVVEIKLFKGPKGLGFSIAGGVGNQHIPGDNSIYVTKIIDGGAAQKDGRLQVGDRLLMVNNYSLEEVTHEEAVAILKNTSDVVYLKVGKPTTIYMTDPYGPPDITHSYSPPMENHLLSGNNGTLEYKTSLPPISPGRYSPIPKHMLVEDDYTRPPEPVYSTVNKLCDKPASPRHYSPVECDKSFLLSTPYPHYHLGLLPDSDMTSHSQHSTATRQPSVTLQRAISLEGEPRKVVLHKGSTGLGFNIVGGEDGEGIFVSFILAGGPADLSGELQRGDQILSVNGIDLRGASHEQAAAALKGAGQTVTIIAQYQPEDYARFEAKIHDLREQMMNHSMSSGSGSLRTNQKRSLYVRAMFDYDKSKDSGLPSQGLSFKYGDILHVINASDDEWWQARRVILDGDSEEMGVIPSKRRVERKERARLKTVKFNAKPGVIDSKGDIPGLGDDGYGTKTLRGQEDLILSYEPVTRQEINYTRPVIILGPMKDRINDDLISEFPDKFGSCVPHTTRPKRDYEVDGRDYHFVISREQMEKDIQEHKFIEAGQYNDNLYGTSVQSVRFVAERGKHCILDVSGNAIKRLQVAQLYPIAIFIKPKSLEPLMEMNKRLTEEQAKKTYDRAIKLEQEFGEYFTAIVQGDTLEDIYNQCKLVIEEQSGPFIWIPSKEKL

Row | Variant | effect of a mutation on the interaction
4 | V1153A | disrupting interaction

Variants of: B1
Conditions: with magi1_human MAGI1, Q96QZ7
magi1_human MAGI1, Q96QZ7, sequence (Q96QZ7 whole entry): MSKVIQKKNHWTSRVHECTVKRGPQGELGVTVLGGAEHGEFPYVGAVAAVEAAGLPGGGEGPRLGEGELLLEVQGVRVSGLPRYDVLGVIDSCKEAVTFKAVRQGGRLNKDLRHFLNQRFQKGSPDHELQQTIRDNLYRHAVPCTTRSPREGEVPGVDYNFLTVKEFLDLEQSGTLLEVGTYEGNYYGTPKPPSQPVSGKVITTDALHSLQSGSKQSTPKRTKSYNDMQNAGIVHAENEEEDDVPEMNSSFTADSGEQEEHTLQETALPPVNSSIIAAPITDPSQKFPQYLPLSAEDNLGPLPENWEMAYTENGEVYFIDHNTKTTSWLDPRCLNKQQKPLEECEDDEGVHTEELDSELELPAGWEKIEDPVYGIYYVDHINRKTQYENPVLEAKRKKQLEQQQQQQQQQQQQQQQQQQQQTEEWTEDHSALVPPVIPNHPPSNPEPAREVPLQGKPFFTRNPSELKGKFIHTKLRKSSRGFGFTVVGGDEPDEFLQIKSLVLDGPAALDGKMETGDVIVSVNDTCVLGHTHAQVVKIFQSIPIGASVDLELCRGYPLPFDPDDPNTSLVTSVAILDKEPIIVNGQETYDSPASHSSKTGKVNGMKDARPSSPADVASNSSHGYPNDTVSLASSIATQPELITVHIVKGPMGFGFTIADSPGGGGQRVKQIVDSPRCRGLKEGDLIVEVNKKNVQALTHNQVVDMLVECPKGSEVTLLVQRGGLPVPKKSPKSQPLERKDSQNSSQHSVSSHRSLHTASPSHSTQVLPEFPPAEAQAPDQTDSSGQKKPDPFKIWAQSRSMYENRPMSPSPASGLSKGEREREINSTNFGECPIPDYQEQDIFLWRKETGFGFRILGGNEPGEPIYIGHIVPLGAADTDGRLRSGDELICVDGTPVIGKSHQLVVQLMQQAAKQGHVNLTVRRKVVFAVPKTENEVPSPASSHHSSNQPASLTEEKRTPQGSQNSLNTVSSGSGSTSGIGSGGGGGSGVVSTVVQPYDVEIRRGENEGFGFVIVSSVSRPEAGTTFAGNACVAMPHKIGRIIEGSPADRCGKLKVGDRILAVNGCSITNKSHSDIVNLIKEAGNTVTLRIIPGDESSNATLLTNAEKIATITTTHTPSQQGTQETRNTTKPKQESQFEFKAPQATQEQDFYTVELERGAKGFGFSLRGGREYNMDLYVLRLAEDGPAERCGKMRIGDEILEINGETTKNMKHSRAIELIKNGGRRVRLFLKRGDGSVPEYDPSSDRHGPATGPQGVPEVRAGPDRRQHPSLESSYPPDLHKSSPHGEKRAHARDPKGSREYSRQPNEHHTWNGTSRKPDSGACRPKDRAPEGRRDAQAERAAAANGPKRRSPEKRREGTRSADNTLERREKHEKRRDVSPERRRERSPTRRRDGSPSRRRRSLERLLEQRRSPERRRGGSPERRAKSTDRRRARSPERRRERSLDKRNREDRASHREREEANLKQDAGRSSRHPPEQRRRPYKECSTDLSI

Row | Variant | effect of a mutation on the interaction
5 | V1153A | disrupting interaction
